# Assay results taken from paper doi:10.1101/306175.
# B1: 1-nt gapped DNA bending sensor (Cy3B/Cy5) (dsDNA)
# DNA 1: CCTCATTCTTCGTCCCATTACCATACATCC
# DNA 2: CCACGAAGCAGGCTCTACTCTCTAAGGATGTATGGTAATGGGACGAAGAATGAGG
# DNA 3: TAGAGAGTAGAGCCTGCTTCGTGG
# modifications: primer 3' dideoxy-terminated (printed TCCH); 5'-phosphate on downstream strand
# How the values were obtained:
# [1] = target: Pol β "wild-type" (unlabelled) (UniProt P06746 1-335, C239S;C267S;V303C); assay: single-molecule FRET titration
# [2] = target: DNA polymerase I Klenow Fragment (KF) (E. coli, UniProt P00582 324-928, D424A); assay: single-molecule FRET
binder,measurement,setting,value
B1,Kd,[1],19 ± 2 nM
same,binding result,[2],binds
